# Laboratory results taken from patent publication US20180371086A1.
# B1: PGT121.56 (antibody, human IgG1, lambda)
# heavy: QMQLQESGPGLVKPSETLSLTCSVSGASISDSYWSWIRRSPGKGLEWIGYVHKSGDTNYSPSLKSRVNLSLDTSKNQVSLSLVAATAADSGKYYCARTLHGRRIYGIVAFNEWFTYFYMDVWGNGTQVTVSSASTKGPSVFPLAPSSKSTSGGTAALGCLVKDYFPEPVTVSWNSGALTSGVHTFPAVLQSSGLYSLSSVVTVPSSSLGTQTYICNVNHKPSNTKVDKKVEPKSCDKTHTCPPCPAPELLAGPDVFLFPPKPKDTLMISRTPEVTCVVVDVSHEDPEVKFNWYVDGVEVHNAKTKPREEQYNSTYRVVSVLTVLHQDWLNGKEYKCKVSNKALPLPEEKTISKAKGQPREPQVYTLPPSREEMTKNQVSLTCLVKGFYPSDIAVEWESNGQPENNYKTTPPVLDSDGSFFLYSKLTVDKSRWQQGNVFSCSVLHEALHSHYTQKSLSLSPGK
# light: not shown
# B2: PGT121.60 hIgG1/hLambda (antibody)
# heavy: QMQLQESGPGLVKPSETLSLTCSVSGASISDSYWSWIRRSPGKGLEWIGYVHKSGDTNYNPSLKSRVHLSLDTSKNQVSLSLTGVTAADSGKYYCARTLHGRRIYGIVAFNEWFTYFYMDVWGTGTQVTVSSASTKGPSVFPLAPSSKSTSGGTAALGCLVKDYFPEPVTVSWNSGALTSGVHTFPAVLQSSGLYSLSSVVTVPSSSLGTQTYICNVNHKPSNTKVDKKVEPKSCDKTHTCPPCPAPELLAGPDVFLFPPKPKDTLMISRTPEVTCVVVDVSHEDPEVKFNWYVDGVEVHNAKTKPREEQYNSTYRVVSVLTVLHQDWLNGKEYKCKVSNKALPLPEEKTISKAKGQPREPQVYTLPPSREEMTKNQVSLTCLVKGFYPSDIAVEWESNGQPENNYKTTPPVLDSDGSFFLYSKLTVDKSRWQQGNVFSCSVLHEALHSHYTQKSLSLSPGK
# light: not shown
# Columns and labels:
# Experiment in all cases: cell-based or functional assay
# [1] = molecular target: Env of 92 subtype B viruses
# [2] = molecular target: 22 primary HIV-1 isolates or clones (mean over all viruses of Table 13)
# [3] = molecular target: HIV-1 Env (gp120) of 4 primary HIV-1 isolates or molecular clones on infected CEM-NKr-CCR5-LucR CD4 T cells
Binder,Coverage (%) [1] [%],Median IC95 (neutralization) [1] [µg/mL],"EC50 (µg/mL), killing of HIV-infected cells (Mean; mean over all viruses) [2] [µg/mL]","Emax, killing of HIV-infected cells (Mean; mean over all viruses) [2] [%]","EC50 of killing infected cells, median [3] [µg/mL]","proportion of infected cells killed (Emax), median [3] [%]"
B1,62,0.265,–,–,–,–
B2,59.8,0.177,1.03,56,> 100,18
